The values that follow are results of earlier work, collected in patent US9173901B2, “Compositions and methods of using lamellar bodies for modifying linear biological macromolecules” (LAMELLAR THERAPEUTICS LIMITED, priority 2004, dated 2015).

This data set relates to CF patients. To be noted: young patients with mild lung disease; six months course.

B1: rhDNAse: recombinant human DNAse, marketed for thinning CF secretions (protein, UniProt P24855 23-282, looked up)
Deoxyribonuclease-1: LKIAAFNIQTFGETKMSNATLVSYIVQILSRYDIALVQEVRDSHLTAVGKLLDNLNQDAPDTYHYVVSEPLGRNSYKERYLFVYRPDQVSAVDSYYYDDGCEPCGNDTFNREPAIVRFFSRFTEVREFAIVPLHAAPGDAVAEIDALYDVYLDVQEKWGLEDVMLMGDFNAGCSYVRPSQWSSIRLWTSPTFQWLIPDSADTTATPTHCAYDRIVVAGMLLRGAVVPDSALPFNFQAAYGLSDQLAQAISDHYPVEVMLK
As to B1, the “benefit in FEVI” value is given as 3% and the “decrease in frequency of intravenous antibiotic courses” value is on record as 34%.
